Earlier results as cited in US9879249B2, “Aldehyde-tagged protein-based drug carriers and methods of use” (Redwood Bioscience, Inc., priority 2009, dated 2018).

Settings: calcitonin peptide alone, unconjugated

In the case of Calcitonin, the absorption half-life is listed as 10 to 15 min and the elimination half-life is listed as 50 to 80 min.
